Measurements published in patent US20180244725.
Where a chain is given by its changes, count along the chain named. In names and notes the source's numbering stands.

Target: T1, R5 peptide
T1 chain: SSKKSGSYSGSKGSKRRIL

B1: OGT (protein)
chain: ASSVGNVADSTEPTKRMLSFQGLAELAHREYQAGDFEAAERHCMQLWRQEPDNTGVLLLLSSIHFQCRRLDRSAHFSTLAIKQNPLLAEAYSNLGNVYKERGQLQEAIEHYRHALRLKPDFIDGYINLAAALVAAGDMEGAVQAYVSALQYNPDLYCVRSDLGNLLKALGRLEEAKACYLKAIETQPNFAVAWSNLGCVFNAQGEIWLAIHHFEKAVTLDPNFLDAYINLGNVLKEARIFDRAVAAYLRALSLSPNHAVVHGNLACVYYEQGLIDLAIDTYRRAIELQPHFPDAYCNLANALKEKGSVAEAEDCYNTALRLCPTHADSLNNLANIKREQGNIEEAVRLYRKALEVFPEFAAAHSNLASVLQQQGKLQEALMHYKEAIRISPTFADAYSNMGNTLKEMQDVQGALQCYTRAIQINPAFADAHSNLASIHKDSGNIPEAIASYRTALKLKPDFPDAYCNLAHCLQIVCDWTDYDERMKKLVSIVADQLEKNRLPSVHPHHSMLYPLSHGFRKAIAERHGNLCLDKINVLHKPPYEHPKDLKLSDGRLRVGYVSSDFGNHPTSHLMQSIPGMHNPDKFEVFCYALSPDDGTNFRVKVMAEANHFIDLSQIPCNGKAADRIHQDGIHILVNMNGYTKGARNELFALRPAPIQAMWLGYPGTSGALFMDYIITDQETSPAEVAEQYSEKLAYMPHTFFIGDHANMFPHLKKKAVIDFKSNGHIYDNRIVLNGIDLKAFLDSLPDVKIVKMKCPDGGDNADSSNTALNMPVIPMNTIAEAVIEMINRGQIQITINGFSISNGLATTQINNKAATGEEVPRTIIVTTRSQYGLPEDAIVYCNFNQLYKIDPSTLQMWANILKRVPNSVLWLLRFPAVGEPNIQQYAQNMGLPQNRIIFSPVAPKEEHVRRGQLADVCLDTPLCNGHTTGMDVLWAGTPMVTMPGETLASRVAASQLTCLGCLELIAKNRQEYEDIAVKLGTDLEYLKKVRGKVWKQRISSPLFNTKQYTMELERLYLQMWEHYAAGNKPDHMIKPVEVTESA
enzymatic modification of R5 (Glycosylation): resulted in no modifications

B2: deoxyhypusine synthase (DHPS) (protein)
chain: MEGSLEREAPAGALAAVLKHSSTLPPESTQVRGYDFNRGVNYRALLEAFGTTGFQATNFGRAVQQVNAMIEKKLEPLSQDEDQHADLTQSRRPLTSCTIFLGYTSNLISSGIRETIRYLVQHNMVDVLVTTAGGVEEDLIKCLAPTYLGEFSLRGKELRENGINRIGNLLVPNENYCKFEDWLMPILDQMVMEQNTEGVKWTPSKMIARLGKEINNPESVYYWAQKNHIPVFSPALTDGSLGDMIFFHSYKNPGLVLDIVEDLRLINTQAIFAKCTGMIILGGGVVKHHIANANLMRNGADYAVYINTAQEFDGSDSGARPDEAVSWGKIRVDAQPVKVYADASLVFPLLVAETFAQKMDAFMHEKNED
hypusination of R5 (LC-MS time course): A time course showing the conversion of two lysine to hypusine residues was determined by LC-MS

B3: lysine methyltransferase SETD7 (SET7/9) (protein)
chain: MDSDDEMVEEAVEGHLDDDGLPHGFCTVTYSSTDRFEGNFVHGEKNGRGKFFFFDGSTLEGYYVDDALQGQGVYTYEDGGVLQGTYVDGELNGPAQEYDTDGRLIFKGQYKDNIRHGVCWIYYPDGGSLVGEVNEDGEMTGEKIAYVYPDERTALYGKFIDGEMIEGKLATLMSTEEGRPHFELMPGNSVYHFDKSTSSCISTNALLPDPYESERVYVAESLISSAGEGLFSKVAVGPNTVMSFYNGVRITHQEVDSRDWALNGNTLSLDEETVIDVPEPYNHVSKYCASLGHKANHSFTPNCIYDMFVHPRFGPIKCIRTLRAVEADEELTVAYGYDHSPPGKSGPEAPEWYQVELKAFQATQQK
methylation of R5 (LC-MS time course): A time course showing the incorporation of zero to 16 methyl groups into R5

B4: SET7/9 Y305F (protein)
chain: B3 chain with Y305F
methylation of R5 (LC-MS time course): A time course showing the incorporation of zero to 16 methyl groups into R5

B5: LipB (protein)
chain: MYQDKILVRQLGLQPYEPISQAMHEFTDTRDDSTLDEIWLVEHYPVFTQGQAGKAEHILMPGDIPVIQSDRGGQVTYHGPGQQVMYVLLNLKRRKLGVRELVTLLEQTVVNTLAELGIEAHPRADAPGVYVGEKKICSLGLRIRRGCSFHGLALNVNMDLSPFLRINPCGYAGMEMAKISQWKPEATTNNIAPRLLENILALLNNPDFEYITA
enzymatic modification of R5 (Lipidation): resulted in no modifications

B6: POMT1 (protein)
chain: MWGFLKRPVVVTADINLSLVALTGMGLLSRLWRLTYPRAVVFDEVYYGQYISFYMKQIFFLDDSGPPFGHMVLALGGYLGGFDGNFLWNRIGAEYSSNVPVWSLRLLPALAGALSVPMAYQIVLELHFSHCAAMGAALLMLIENALITQSRLMLLESVLIFFNLLAVLSYLKFFNCQKHSPFSLSWWFWLTLTGVACSCAVGIKYMGVFTYVLVLGVAAVHAWHLLGDQTLSNVGADVQCCMRPACMGQMQMSQGVCVFCHLLARAVALLVIPVVLYLLFFYVHLILVFRSGPHDQIMSSAFQASLEGGLARITQGQPLEVAFGSQVTLRNVFGKPVPCWLHSHQDTYPMIYENGRGSSHQQQVTCYPFKDVNNWWIVKDPRRHQLVVSSPPRPVRHGDMVQLVHGMTTRSLNTHDVAAPLSPHSQEVSCYIDYNISMPAQNLWRLEIVNRGSDTDVWKTILSEVRFVHVNTSAVLKLSGAHLPDWGYRQLEIVGEKLSRGYHGSTVWNVEEHRYGASQEQRERERELHSPAQVDVSRNLSFMARFSELQWRMLALRSDDSEHKYSSSPLEWVTLDTNIAYWLHPRTSAQIHLLGNIVIWVSGSLALAIYALLSLWYLLRRRRNVHDLPQDAWLRWVLAGALCAGGWAVNYLPFFLMEKTLFLYHYLPALTFQILLLPVVLQHISDHLCRSQLQRSIFSALVVAWYSSACHVSNTLRPLTYGDKSLSPHELKALRWKDSWDILIRKH
enzymatic modification of R5 (Glycosylation): resulted in no modifications

B7: GALNT1 (protein)
chain: GLPAGDVLEPVQKPHEGPGEMGKPVVIPKEDQEKMKEMFKINQFNLMASEMIALNRSLPDVRLEGCKTKVYPDNLPTTSVVIVFHNEAWSTLLRTVHSVINRSPRHMIEEIVLVDDASERDFLKRPLESYVKKLKVPVHVIRMEQRSGLIRARLKGAAVSKGQVITFLDAHCECTVGWLEPLLARIKHDRRTVVCPIIDVISDDTFEYMAGSDMTYGGFNWKLNFRWYPVPQREMDRRKGDRTLPVRTPTMAGGLFSIDRDYFQEIGTYDAGMDIWGGENLEISFRIWQCGGTLEIVTCSHVGHVFRKATPYTFPGGTGQIINKNNRRLAEVWMDEFKNFFYIISPGVTKVDYGDISSRVGLRHKLQCKPFSWYLENIYPDSQIPRHYFSLGEIRNVETNQCLDNMARKENEKVGIFNCHGMGGNQVFSYTANKEIRTDDLCLDVSKLNGPVTMLKCHHLKGNQLWEYDPVKLTLQHVNSNQCLDKATEEDSQVPSIRDCNGSRSQQWLLRNVTLPEIF
enzymatic modification of R5 (Glycosylation): resulted in no modifications

B8: Thermospermine synthase ACL5 (protein)
chain: MGEAVEVMFGNGFPEIHKATSPTQTLHSNQQDCHWYEETIDDDLKWSFALNSVLHQGTSEYQDIALLDTKRFGKVLVIDGKMQSAERDEFIYHECLIHPALLFHPNPKTVFIMGGGEGSAAREILKHTTIEKVVMCDIDQEVVDFCRRFLTVNSDAFCNKKLELVIKDAKAELEKREEKFDIIVGDLADPVEGGPCYQLYTKSFYQNILKPKLSPNGIFVTQAGPAGIFTHKEVFTSIYNTMKQVFKYVKAYTAHVPSFADTWGWVMASDHEFDVEVDEMDRRIEERVNGELMYLNAPSFVSAATLNKTISLALEKETEVYSEENARFIHGHGVAYRHI
propylamination of R5 (LC-MS time course): the incorporation of one thermospermine molecule into R5

B9: LplA (protein)
chain: STLRLLISDSYDPWFNLAVEECIFRQMPATQRVLFLWRNADTVVIGRAQNPWKECNTRRMEEDNVRLARRSSGGGAVFHDLGNTCFTFMAGKPEYDKTISTSIVLNALNALGVSAEASGRNDLVVKTVEGDRKVSGSAYRETKDRGFHHGTLLLNADLSRLANYLNPDKKKLAAKGITSVRSRVTNLTELLPGITHEQVCEAITEAFFAHYGERVEAEIISPNKTPDLPNFAETFARQSSWEWNFGQAPAFSHLLDERFTWGGVELHFDVEKGHITRAQVFTDSLNPAPLEALAGRLQGCLYRADMLQQECEALLVDFPEQEKELRELSAWMAGAVR
enzymatic modification of R5 (Lipidation): resulted in no modifications

B10: vopS (protein)
chain: GKEYTINAATQEFTRANPTSGAVARFFEATGKLFREGSTQSVAKAITKAVFDNEQGQAQRLQTSSSVEHGQMLFKDANLKTPSDVLNAFAKLDSKMVKSHAAELSQLAERAMTEVMLETDSGKNLKALIGDDAVKSLAVRVVKDYGGGVAAAQKNPEVRINQMQAVFDMEVMHLKAAQRHIEGLASTDLNQGVYAEGLPEDAFNKAGVTNNVERAAAWIINASNSKGNDAENITSLLKEYATNGKDLLNMDNLKELHARLVPNVERDYRGPNISGGTLPSSIGGEGMLKQHIEGFLKENPVADKDLGKHLFAGVIGYHGFTDGNGRMGRMLYAIAELRNDSFNPLAMNAENSLHGIK
enzymatic modification of R5 (Adenylylation): resulted in no modifications

B11: BRSK2 (protein)
chain: MWPPDPDPDPDPEPAGGSRPGPAVPGLRALLPARAFLCSLKGRLLLAESGLSFITFICYVASSASAFLTAPLLEFLLALYFLFADAMQLNDKWQGLCWPMMDFLRCVTAALIYFAISITAIAKYSDGASKAAGVFGFFATIVFATDFYLIFNDVAKFLKQGDSADETTAHKTEEENSDSDSD
enzymatic modification of R5 (Phosphorylation): resulted in no modifications

B12: deoxyhypusine hydroxulase (DOHH) (protein)
chain: MVTEQEVDAIGQTLVDPKQPLQARFRALFTLRGLGGPGAIAWISQAFDDDSALLKHELAYCLGQMQDARAIPMLVDVLQDTRQEPMVRHEAGEALGAIGDPEVLEILKQYSSDPVIEVAETCQLAVRRLEWLQQHGGEPAAGPYLSVDPAPPAEERDVGRLREALLDESRPLFERYRAMFALRNAGGEEAALALAEGLHCGSALFRHEVGYVLGQLQHEAAVPQLAAALARCTENPMVRHECAEALGAIARPACLAALQAHADDPERVVRESCEVALDMYEHETGRAFQYADGLEQLRGAPS
hypusination of R5 (LC-MS time course): A time course showing the conversion of two lysine to hypusine residues was determined by LC-MS

B13: NMT2 (protein)
chain: MAEDSESAASQQSLELDDQDTCGIDGDNEEETEHAKGSPGGYLGAKKKKKKQKRKKEKPNSGGTKSDSASDSQEIKIQQPSKNPSVPMQKLQDIQRAMELLSACQGPARNIDEAAKHRYQFWDTQPVPKLDEVITSHGAIEPDKDNVRQEPYSLPQGFMWDTLDLSDAEVLKELYTLLNENYVEDDDNMFRFDYSPEFLLWALRPPGWLLQWHCGVRVSSNKKLVGFISAIPANIRIYDSVKKMVEINFLCVHKKLRSKRVAPVLIREITRRVNLEGIFQAVYTAGVVLPKPIATCRYWHRSLNPRKLVEVKFSHLSRNMTLQRTMKLYRLPDVTKTSGLRPMEPKDIKSVRELINTYLKQFHLAPVMDEEEVAHWFLPREHIIDTFVVESPNGKLTDFLSFYTLPSTVMHHPAHKSLKAAYSFYNIHTETPLLDLMSDALILAKSKGFDVFNALDLMENKTFLEKLKFGIGDGNLQYYLYNWRCPGTDSEKVGLVLQ
enzymatic modification of R5 (Lipidation): resulted in no modifications
